Assay results taken from patent US20240085404A1.

Molecular target: human FcRn (FCGRT heavy chain and B2M light chain) expressed on MDCK-hFcRn cells (human) (UniProt P55899)
Test: cell-based or functional assay

Chain of UniProt P55899 (P55899 24-365, chain 1 of 2): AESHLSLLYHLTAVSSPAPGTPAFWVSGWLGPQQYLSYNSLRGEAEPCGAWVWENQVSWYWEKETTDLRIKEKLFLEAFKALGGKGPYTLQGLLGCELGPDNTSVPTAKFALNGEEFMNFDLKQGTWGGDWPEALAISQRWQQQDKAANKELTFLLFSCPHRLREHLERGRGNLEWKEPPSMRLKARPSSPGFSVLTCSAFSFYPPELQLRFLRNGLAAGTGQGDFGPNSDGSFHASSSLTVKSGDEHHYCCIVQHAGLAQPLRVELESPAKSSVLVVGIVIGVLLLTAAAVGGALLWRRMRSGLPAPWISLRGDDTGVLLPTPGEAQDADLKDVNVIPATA
Chain of UniProt P55899 (P61769 21-119, chain 2 of 2, further chain): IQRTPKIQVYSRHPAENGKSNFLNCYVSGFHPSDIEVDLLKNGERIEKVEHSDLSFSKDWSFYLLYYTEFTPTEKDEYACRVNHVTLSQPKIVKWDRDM

Substance	recycling output
anti-gD HAHQ (antibody)	0.6 ng/mL
anti-gD YTE (antibody)	1.9 ng/mL
